Test results published in publication PMC3145769.

Experiments:
Assay in all cases: co-IP; anti-Flag M2 affinity gel on extracts of NIH3T3 cells transfected with 3xFlag Cyclin A2 alleles; endogenous partners detected by Western blot; densitometry (ImageQuantTL) normalised to immunoprecipitated Cyclin A2, percent of WT; repeated 5 times
[1] = biological target: Cyclin A2 K256A, C-terminally fused to 3 Flag tags (mouse) (UniProt P51943)
[2] = biological target: Cyclin A2 D171A, C-terminally fused to 3 Flag tags (mouse) (UniProt P51943)
[3] = biological target: Cyclin A2 Double (W207L, E210Q), C-terminally fused to 3 Flag tags (mouse) (UniProt P51943)
[4] = biological target: Cyclin A2 E180A, C-terminally fused to 3 Flag tags (mouse) (UniProt P51943)
[5] = biological target: Cyclin A2 E210Q, C-terminally fused to 3 Flag tags (mouse) (UniProt P51943)
[6] = biological target: Cyclin A2 E285A, C-terminally fused to 3 Flag tags (mouse) (UniProt P51943)
[7] = biological target: Cyclin A2 L204A, C-terminally fused to 3 Flag tags (mouse) (UniProt P51943)
[8] = biological target: Cyclin A2 L282R, C-terminally fused to 3 Flag tags (mouse) (UniProt P51943)
[9] = biological target: Cyclin A2 M200A, C-terminally fused to 3 Flag tags (mouse) (UniProt P51943)
[10] = biological target: Cyclin A2 W207A, C-terminally fused to 3 Flag tags (mouse) (UniProt P51943)
[11] = biological target: Cyclin A2 WT, C-terminally fused to 3 Flag tags (mouse) (UniProt P51943)
Sequence of Cyclin A2 WT, C-terminally fused to 3 Flag tags (mouse) (P51943 whole entry, the tested form may be a part): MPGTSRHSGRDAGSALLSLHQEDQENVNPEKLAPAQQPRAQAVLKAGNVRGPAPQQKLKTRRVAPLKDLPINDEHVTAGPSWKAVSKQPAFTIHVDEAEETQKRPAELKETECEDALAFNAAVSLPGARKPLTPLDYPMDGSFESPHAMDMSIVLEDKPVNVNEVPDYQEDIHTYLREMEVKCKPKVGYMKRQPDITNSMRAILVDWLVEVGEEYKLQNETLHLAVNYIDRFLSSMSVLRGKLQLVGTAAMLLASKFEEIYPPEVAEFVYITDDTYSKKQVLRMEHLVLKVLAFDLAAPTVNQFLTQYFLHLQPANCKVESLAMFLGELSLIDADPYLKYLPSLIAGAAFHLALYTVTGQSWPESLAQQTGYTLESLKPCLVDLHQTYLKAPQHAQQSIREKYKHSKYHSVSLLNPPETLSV

Sequence of Cyclin A2 M200A, C-terminally fused to 3 Flag tags (mouse) (P51943 whole entry M200A, the tested form may be a part): as the sequence (P51943 whole entry, the tested form may be a part) above, with M200A counted along it
Sequence of Cyclin A2 E210Q, C-terminally fused to 3 Flag tags (mouse) (P51943 whole entry E210Q, the tested form may be a part): as the sequence (P51943 whole entry, the tested form may be a part) above, with E210Q counted along it
Sequence of Cyclin A2 L204A, C-terminally fused to 3 Flag tags (mouse) (P51943 whole entry L204A, the tested form may be a part): as the sequence (P51943 whole entry, the tested form may be a part) above, with L204A counted along it
Sequence of Cyclin A2 D171A, C-terminally fused to 3 Flag tags (mouse) (P51943 whole entry D171A, the tested form may be a part): as the sequence (P51943 whole entry, the tested form may be a part) above, with D171A counted along it
Sequence of Cyclin A2 E285A, C-terminally fused to 3 Flag tags (mouse) (P51943 whole entry E285A, the tested form may be a part): as the sequence (P51943 whole entry, the tested form may be a part) above, with E285A counted along it
Sequence of Cyclin A2 K256A, C-terminally fused to 3 Flag tags (mouse) (P51943 whole entry K256A, the tested form may be a part): as the sequence (P51943 whole entry, the tested form may be a part) above, with K256A counted along it
Sequence of Cyclin A2 W207A, C-terminally fused to 3 Flag tags (mouse) (P51943 whole entry W207A, the tested form may be a part): as the sequence (P51943 whole entry, the tested form may be a part) above, with W207A counted along it
Sequence of Cyclin A2 E180A, C-terminally fused to 3 Flag tags (mouse) (P51943 whole entry E180A, the tested form may be a part): as the sequence (P51943 whole entry, the tested form may be a part) above, with E180A counted along it
Sequence of Cyclin A2 L282R, C-terminally fused to 3 Flag tags (mouse) (P51943 whole entry L282R, the tested form may be a part): as the sequence (P51943 whole entry, the tested form may be a part) above, with L282R counted along it
Sequence of Cyclin A2 Double (W207L, E210Q), C-terminally fused to 3 Flag tags (mouse) (P51943 whole entry W207L/E210Q, the tested form may be a part): as the sequence (P51943 whole entry, the tested form may be a part) above, with W207L, E210Q counted along it

Substance	percent co-precipitated relative to WT [1] [%]	percent co-precipitated relative to WT [2] [%]	percent co-precipitated relative to WT [3] [%]	percent co-precipitated relative to WT [4] [%]	percent co-precipitated relative to WT [5] [%]	percent co-precipitated relative to WT [6] [%]	percent co-precipitated relative to WT [7] [%]	percent co-precipitated relative to WT [8] [%]	percent co-precipitated relative to WT [9] [%]	percent co-precipitated relative to WT [10] [%]	percent co-precipitated relative to WT [11] [%]
CDK2 (endogenous, NIH3T3) (from UniProt P97377 1-346)	68.2										
CDK2 (endogenous, NIH3T3) (from UniProt P97377 1-346) (enzyme)		100	66.4	17.7	99.6	41.7	72.4	81.5	86.4	1.2	100
